The source of these data is patent US20230056252A1 (Gilead, published 2023).

Assay [1] concerns the target T1, biotinylated CD3 epsilon:delta heterodimer protein (Amsbio AMS.CDD-H52WO) (Homo sapiens (Human), UniProt P07766 23-126; P04234 22-105).
T1 construct: also called CD3 heterodimer
Put plainly: BLI (Octet), CD3 on SA sensor, Fab analyte.
Protocol: (§1) The CD3 binding kinetics of the purified huSP34 Fabs were determined using OctetRed384 (Pall ForteBio, CA) biolayer interferometry (BLI). […] Streptavidin (SA) coated biosensors tips (Pall ForteBio, CA) were used to capture biotinylated CD3 epsilon: delta heterodimer and typical immobilization levels captured on the SA sensors were 1 nm which approximately translates to 300 ng/ml of captured protein. For kinetic measurements biosensors were first pre-wetted with assay buffer for 10 minutes to remove protective sucrose coating followed by the recommended regeneration conditions for standardization of the biosensor surface for the experiment. In order to load the biosensors with antigen, 300 ng/ml of biotinylated CD3 epsilon: delta heterodimer protein (Amsbio AMS.CDD-H52WO) was immobilized on the SA sensor for 900 seconds. The CD3 loaded biosensors were then blocked with 20 ug/ml biocytin (sigma) for 200 seconds and then dipped into assay buffer containing wells for 200 seconds to remove any non-specific protein or unbound CD3 heterodimer.
(§2) CD3 loaded and biocytin blocked biosensors were then transferred into fresh assay buffer for 200 seconds to collect a baseline read. Kinetic measurements for anti-CD3 Fab and bispecific antibody binding were performed by dipping the CD3-coated biosensors into wells containing multiple concentrations of Fab or Ab (0-300 nM) for 100 seconds followed by a 300 second dissociation time by transferring the biosensors into assay buffer containing wells. The CD3 loaded sensors were then regenerated for the next kinetic measurement. Biosensors were generated by removing bound Fabs or Ab from immobilized CD3 on SA biosensors. Regeneration conditions used consisted of 3 cycles of 5 seconds of dipping the biosensors in Regeneration Buffer (10 mM Glycine HCl pH 1.5) followed by Assay Buffer (10 mM sodium phosphate pH 7.4, 140 mM Sodium Chloride, 0.005% Tween20 with 0.2% BSA).

Assay [2] has as its target T1, biotinylated CD3 epsilon:delta …. Put plainly: BLI (Octet), CD3 on SA sensor, Fab analyte. This is another data set of the same source. Background: Biolayer interferometry detects binding as a change in optical thickness at a sensor tip.
Protocol: as §1, §2
In assay [3] the target is T2, CD3 expressed on cell-surface of primary human T cells (human, UniProt P07766 23-207; P04234 22-171).
T2 construct: also called cell-surface CD3; human CD3
Put plainly: flow cytometry competition vs murine SP34-AF488 on human T cells, n = 1.
Protocol: Binding of humanized SP34 Fab variants to CD3 expressed on cell-surface of primary human T cells was evaluated in a flow cytometry-based competition assay.

Where two headings read alike, the source gives them in different places.

B1: huSP34.3.10 Fab-HF (Fab, V domains shown)
VH: EVQLVESGGGLVQPGGSLRLSCAASGFTFNTYAMNWVRQAPGKGLEWVGRIRSKYNNYATYYADSVKGRFTISRDDSKNSLYLQMNSLRTEDTAVYYCVRHGNFGHSYVSWFAYWGQGTLVTVSS
VL: QAVVTQPPSLTVSPGGTVTLTCGSSTGAVTTGHYANWVQQKPGQAPRGLIGGTNKRAPGVPARFSGSLSGGKAALTISGAQPEDEAEYYCALWYSNRWVFGGGTKLTVL
notes: also called HC3+LC10
Take B1: in assay [1], the Kd (commonly the free concentration of one partner at which half of the binding sites on the other are occupied at equilibrium, for simple one-to-one binding) came out at 2 nM; the koff – broadly, a measure of how fast the partners let go of each other – was found to be 0.00137 s⁻¹; the kon (as a rule, a measure of how fast the partners come together) worked out at 683000 M⁻¹ s⁻¹. For the same molecule, in assay [2], binding was put at a Kd of 2.3 nM, the koff is 0.000235 s⁻¹ and the kon came to 142000 M⁻¹ s⁻¹.

B2: huSP34.6.6 Fab-HF (Fab, V domains shown)
VH: EVQLVESGGGLVQPGGSLRLSCAASGFTFSTYAMNWVRQAPGKGLEWVGRIRSKYNNYATYYADSVKGRFTISRDNSKNTLYLQMNSLRAEDTAMYYCVRHGNFGNSYVSWFAVWGQGTLVTVSS
VL: QAVVTQPPSLTVSPGGTVTLTCGSSTGAVTTGHYANWVQQKPGQAPRGLIGGTSNRAPGVPARFSGSLSGGKAALTISGAQPEDEAEYYCALWYSARWVFGGGTKLTVL
For the molecule B2, the IC50 (as a rule, the concentration that inhibits the measured activity by half) in assay [3] is more than 20 µg/mL.

B3: huSP34.9.1 Fab-HF (Fab, V domains shown)
VH: EVQLVESGGGLVQPGGSLRLSCAASGFTFSDYAMNWVRQAPGKGLEWVGRTRSKYNSYATYYAASVKGRFTISRDDSKNSLYLQMNSLKTEDTAVYYCVRHGNFGNSYVSWFAVWGQGTLVTVSS
VL: QAVVTQEPSLTVSPGGTVTLTCRSSTGAVTTSNYANWVQQKPGQAPRGLIGGTNKRAPWTPARFSGSLIGDKAALTLSGAQPEDEAEYYCALWYSNLWVFGGGTKLTVL
Consider B3, for which, in assay [3], the IC50 was more than 20 µg/mL.

B4: huSP34.10.5 Fab-HF (Fab, V domains shown)
VH: EVQLVESGGGLVQPGGSLRLSCAASGFTFSDYAMNWVRQAPGKGLEWVGRTRSKYNSYATYYAASVKGRFTISRDDSKNSLYLQMNSLKTEDTAVYYCVRHGNFGHSYVSWFAVWGQGTLVTVSS
VL: QAVVTQEPSLTVSPGGTVTLTCGSSTGAVTTGHYANWVQQKPGQAPRGLIGGTSNRAPWTPARFSGSLLGGKAALTLSGAQPEDEAEYYCALWYSARWVFGGGTKLTVL
For the molecule B4, the IC50 in assay [3] was more than 20 µg/mL.

B5: huSP34.6.1 Fab-HF (Fab, V domains shown)
VH: EVQLVESGGGLVQPGGSLRLSCAASGFTFSTYAMNWVRQAPGKGLEWVGRIRSKYNNYATYYADSVKGRFTISRDNSKNTLYLQMNSLRAEDTAMYYCVRHGNFGNSYVSWFAVWGQGTLVTVSS
VL: QAVVTQEPSLTVSPGGTVTLTCRSSTGAVTTSNYANWVQQKPGQAPRGLIGGTNKRAPWTPARFSGSLIGDKAALTLSGAQPEDEAEYYCALWYSNLWVFGGGTKLTVL
Turning to B5, the concentration for half-maximal inhibition (IC50) in assay [3] is more than 20 µg/mL.

B6: huSP34.6.5 Fab-HF (Fab, V domains shown)
VH: EVQLVESGGGLVQPGGSLRLSCAASGFTFSTYAMNWVRQAPGKGLEWVGRIRSKYNNYATYYADSVKGRFTISRDNSKNTLYLQMNSLRAEDTAMYYCVRHGNFGNSYVSWFAVWGQGTLVTVSS
VL: QAVVTQEPSLTVSPGGTVTLTCGSSTGAVTTGHYANWVQQKPGQAPRGLIGGTSNRAPWTPARFSGSLLGGKAALTLSGAQPEDEAEYYCALWYSARWVFGGGTKLTVL
On to B6, for which the IC50 in assay [3] is more than 20 µg/mL.

B7: huSP34.9.5 Fab-HF (Fab, V domains shown)
VH: EVQLVESGGGLVQPGGSLRLSCAASGFTFSDYAMNWVRQAPGKGLEWVGRTRSKYNSYATYYAASVKGRFTISRDDSKNSLYLQMNSLKTEDTAVYYCVRHGNFGNSYVSWFAVWGQGTLVTVSS
VL: QAVVTQEPSLTVSPGGTVTLTCGSSTGAVTTGHYANWVQQKPGQAPRGLIGGTSNRAPWTPARFSGSLLGGKAALTLSGAQPEDEAEYYCALWYSARWVFGGGTKLTVL
As for B7, the IC50 in assay [3] is more than 20 µg/mL.

B8: huSP34.10.2 Fab-HF (Fab, V domains shown)
VH: EVQLVESGGGLVQPGGSLRLSCAASGFTFSDYAMNWVRQAPGKGLEWVGRTRSKYNSYATYYAASVKGRFTISRDDSKNSLYLQMNSLKTEDTAVYYCVRHGNFGHSYVSWFAVWGQGTLVTVSS
VL: QAVVTQEPSLTVSPGGTVTLTCGSSTGAVTTSNYANWVQQKPGQAPRGLIGGTSNRAPWTPARFSGSLLGGKAALTLSGAQPEDEAEYYCALWYSNLWVFGGGTKLTVL
In turn, B8 gave an IC50 in assay [3] of more than 20 µg/mL.

B9: huSP34.10.4 Fab-HF (Fab, V domains shown)
VH: EVQLVESGGGLVQPGGSLRLSCAASGFTFSDYAMNWVRQAPGKGLEWVGRTRSKYNSYATYYAASVKGRFTISRDDSKNSLYLQMNSLKTEDTAVYYCVRHGNFGHSYVSWFAVWGQGTLVTVSS
VL: QAVVTQEPSLTVSPGGTVTLTCGSSTGAVTTSHYANWVQQKPGQAPRGLIGGTSKRAPWTPARFSGSLLGGKAALTLSGAQPEDEAEYYCALWYSALWVFGGGTKLTVL
In assay [3], B9 displayed an IC50 of more than 20 µg/mL.

B10: huSP34.7.1 Fab-HF (Fab, V domains shown)
VH: EVQLVESGGGLVQPGGSLRLSCAASGFTFSDYAMNWVRQAPGKGLEWVGRTRSKYNNYATYYAASVKGRFTISRDDSKNSLYLQMNSLKTEDTAVYYCVRHGNFGNSYVSWFAVWGQGTLVTVSS
VL: QAVVTQEPSLTVSPGGTVTLTCRSSTGAVTTSNYANWVQQKPGQAPRGLIGGTNKRAPWTPARFSGSLIGDKAALTLSGAQPEDEAEYYCALWYSNLWVFGGGTKLTVL
Turning to B10, in assay [3], the IC50 was more than 20 µg/mL.

B11: huSP34.6.2 Fab-HF (Fab, V domains shown)
VH: EVQLVESGGGLVQPGGSLRLSCAASGFTFSTYAMNWVRQAPGKGLEWVGRIRSKYNNYATYYADSVKGRFTISRDNSKNTLYLQMNSLRAEDTAMYYCVRHGNFGNSYVSWFAVWGQGTLVTVSS
VL: QAVVTQEPSLTVSPGGTVTLTCGSSTGAVTTSNYANWVQQKPGQAPRGLIGGTSNRAPWTPARFSGSLLGGKAALTLSGAQPEDEAEYYCALWYSNLWVFGGGTKLTVL
The molecule B11 showed an IC50 in assay [3] of more than 20 µg/mL.

B12: huSP34.9.2 Fab-HF (Fab, V domains shown)
VH: EVQLVESGGGLVQPGGSLRLSCAASGFTFSDYAMNWVRQAPGKGLEWVGRTRSKYNSYATYYAASVKGRFTISRDDSKNSLYLQMNSLKTEDTAVYYCVRHGNFGNSYVSWFAVWGQGTLVTVSS
VL: QAVVTQEPSLTVSPGGTVTLTCGSSTGAVTTSNYANWVQQKPGQAPRGLIGGTSNRAPWTPARFSGSLLGGKAALTLSGAQPEDEAEYYCALWYSNLWVFGGGTKLTVL
On to B12, for which, in assay [3], the IC50 is more than 20 µg/mL.

B13: huSP34.8.2 Fab-HF (Fab, V domains shown)
VH: EVQLVESGGGLVQPGGSLRLSCAASGFTFSDYAMNWVRQAPGKGLEWVGRTRSKYNNYATYYAASVKGRFTISRDDSKNSLYLQMNSLKTEDTAVYYCVRHGNFGHSYVSWFAVWGQGTLVTVSS
VL: QAVVTQEPSLTVSPGGTVTLTCGSSTGAVTTSNYANWVQQKPGQAPRGLIGGTSNRAPWTPARFSGSLLGGKAALTLSGAQPEDEAEYYCALWYSNLWVFGGGTKLTVL
B13 yielded an IC50 in assay [3] of more than 20 µg/mL.

B14: huSP34.8.1 Fab-HF (Fab, V domains shown)
VH: EVQLVESGGGLVQPGGSLRLSCAASGFTFSDYAMNWVRQAPGKGLEWVGRTRSKYNNYATYYAASVKGRFTISRDDSKNSLYLQMNSLKTEDTAVYYCVRHGNFGHSYVSWFAVWGQGTLVTVSS
VL: QAVVTQEPSLTVSPGGTVTLTCRSSTGAVTTSNYANWVQQKPGQAPRGLIGGTNKRAPWTPARFSGSLIGDKAALTLSGAQPEDEAEYYCALWYSNLWVFGGGTKLTVL
As for B14, the IC50 in assay [3] is more than 20 µg/mL.

B15: huSP34.8.5 Fab-HF (Fab, V domains shown)
VH: EVQLVESGGGLVQPGGSLRLSCAASGFTFSDYAMNWVRQAPGKGLEWVGRTRSKYNNYATYYAASVKGRFTISRDDSKNSLYLQMNSLKTEDTAVYYCVRHGNFGHSYVSWFAVWGQGTLVTVSS
VL: QAVVTQEPSLTVSPGGTVTLTCGSSTGAVTTGHYANWVQQKPGQAPRGLIGGTSNRAPWTPARFSGSLLGGKAALTLSGAQPEDEAEYYCALWYSARWVFGGGTKLTVL
As for B15, the IC50 in assay [3] was more than 20 µg/mL.

B16: huSP34.8.6 Fab-HF (Fab, V domains shown)
VH: EVQLVESGGGLVQPGGSLRLSCAASGFTFSDYAMNWVRQAPGKGLEWVGRTRSKYNNYATYYAASVKGRFTISRDDSKNSLYLQMNSLKTEDTAVYYCVRHGNFGHSYVSWFAVWGQGTLVTVSS
VL: QAVVTQPPSLTVSPGGTVTLTCGSSTGAVTTGHYANWVQQKPGQAPRGLIGGTSNRAPGVPARFSGSLSGGKAALTISGAQPEDEAEYYCALWYSARWVFGGGTKLTVL
Consider B16, for which the IC50 in assay [3] was more than 20 µg/mL.

B17: huSP34.6.4 Fab-HF (Fab, V domains shown)
VH: EVQLVESGGGLVQPGGSLRLSCAASGFTFSTYAMNWVRQAPGKGLEWVGRIRSKYNNYATYYADSVKGRFTISRDNSKNTLYLQMNSLRAEDTAMYYCVRHGNFGNSYVSWFAVWGQGTLVTVSS
VL: QAVVTQEPSLTVSPGGTVTLTCGSSTGAVTTSHYANWVQQKPGQAPRGLIGGTSKRAPWTPARFSGSLLGGKAALTLSGAQPEDEAEYYCALWYSALWVFGGGTKLTVL
Regarding B17, the IC50 in assay [3] was more than 20 µg/mL.

B18: huSP34.10.1 Fab-HF (Fab, V domains shown)
VH: EVQLVESGGGLVQPGGSLRLSCAASGFTFSDYAMNWVRQAPGKGLEWVGRTRSKYNSYATYYAASVKGRFTISRDDSKNSLYLQMNSLKTEDTAVYYCVRHGNFGHSYVSWFAVWGQGTLVTVSS
VL: QAVVTQEPSLTVSPGGTVTLTCRSSTGAVTTSNYANWVQQKPGQAPRGLIGGTNKRAPWTPARFSGSLIGDKAALTLSGAQPEDEAEYYCALWYSNLWVFGGGTKLTVL
In the case of B18, the IC50 in assay [3] is more than 20 µg/mL.

B19: huSP34.8.4 Fab-HF (Fab, V domains shown)
VH: EVQLVESGGGLVQPGGSLRLSCAASGFTFSDYAMNWVRQAPGKGLEWVGRTRSKYNNYATYYAASVKGRFTISRDDSKNSLYLQMNSLKTEDTAVYYCVRHGNFGHSYVSWFAVWGQGTLVTVSS
VL: QAVVTQEPSLTVSPGGTVTLTCGSSTGAVTTSHYANWVQQKPGQAPRGLIGGTSKRAPWTPARFSGSLLGGKAALTLSGAQPEDEAEYYCALWYSALWVFGGGTKLTVL
B19: the IC50 in assay [3] was more than 20 µg/mL.

B20: huSP34.9.4 Fab-HF (Fab, V domains shown)
VH: EVQLVESGGGLVQPGGSLRLSCAASGFTFSDYAMNWVRQAPGKGLEWVGRTRSKYNSYATYYAASVKGRFTISRDDSKNSLYLQMNSLKTEDTAVYYCVRHGNFGNSYVSWFAVWGQGTLVTVSS
VL: QAVVTQEPSLTVSPGGTVTLTCGSSTGAVTTSHYANWVQQKPGQAPRGLIGGTSKRAPWTPARFSGSLLGGKAALTLSGAQPEDEAEYYCALWYSALWVFGGGTKLTVL
As to B20, the IC50 in assay [3] is more than 20 µg/mL.
